Laboratory results taken from US20030166870A1.
Read-outs that look alike come from different tables or passages of the source.

How the values were obtained:
[1] = target: FLAG-tagged human CCR5 expressed on transfected L1.2 murine pre-B lymphoma cells (human) (UniProt P51681); assay: inhibition of 0.1 nM 125I-MIP-1α binding to CCR5 L1.2 transfectants by decreasing amounts of mAb; competitor MIP-1α
[2] = target: FLAG-tagged human CCR5 expressed on transfected L1.2 murine pre-B lymphoma cells (human) (UniProt P51681); assay: inhibition of 0.1 nM 125I-MIP-1β binding to CCR5 L1.2 transfectants by decreasing amounts of mAb; competitor MIP-1β
[3] = target: human CCR5 (no tag stated) (human) (UniProt P51681); assay: 10 µg/ml mAb; 125I-MIP-1α binding to activated IL-2 maintained T cells (CD3 blasts); competitor MIP-1α
[4] = target: human CCR5 (no tag stated) (human) (UniProt P51681); assay: 10 µg/ml mAb; 125I-RANTES binding to activated IL-2 maintained T cells (CD3 blasts); competitor RANTES
[5] = target: FLAG-tagged human CCR5 expressed on transfected L1.2 murine pre-B lymphoma cells (human) (UniProt P51681); assay: inhibition of 0.1 nM 125I-RANTES binding to CCR5 L1.2 transfectants by decreasing amounts of mAb; competitor RANTES
[6] = target: FLAG-tagged human CCR5 expressed on transfected L1.2 murine pre-B lymphoma cells (human) (UniProt P51681)
[7] = target: FLAG-tagged human CCR5 expressed on transfected L1.2 murine pre-B lymphoma cells (human) (UniProt P51681); assay: cell-based or functional assay
[8] = target: human CCR5 (no tag stated) (human) (UniProt P51681); assay: cell-based or functional assay

murine monoclonal antibody 2D7
IC50 [1]: 0.023 µg/mL | IC50 [2]: 0.041 µg/mL | percent inhibition of 125I-MIP-1α binding [3]: 85% | percent inhibition of 125I-RANTES binding [4]: 95% | IC50 [5]: 0.058 µg/mL | IC50 [6]: 0.01 µg/mL | concentration giving complete inhibition of 125I-gp120 binding [6]: 50 ng/mL | mAb concentration sufficient for complete inhibition of migration of CCR5 L1.2 cells to all of the ligands [7]: 20 µg/mL | inhibition of RANTES and MIP-1α chemotactic responses by T cell lines [8]: 60 to 80% | inhibition of chemotactic response of anti-CD3/IL-2 stimulated T cells to MIP-1α [8]: 60 to 80%
